According to doi:10.1101/2023.10.09.561517 (bioRxiv, 2023):
Where “and” joins values, the source holds several entries; their conditions need not be identical. Equal values may be shown once.

How the values were obtained:
[1] = target: CaMKIIβ full-length hub domain (residues 534-666) (human); experiment: crystal structure
[2] = target: CaMKIIβ full-length hub domain (residues 534-666) (human); experiment: mass photometry
[3] = target: CaMKIIβ full-length hub domain (residues 534-666) (human); experiment: mass photometry; remark: listed apart in the source
[4] = target: CaMKIIβ full-length hub domain (residues 534-666) (human); experiment: crystal structure; remark: listed apart in the source
[5] = target: CaMKIIα hub domain; experiment: mass photometry
[6] = target: the molecule itself; experiment: SEC-MALS

With “CaMKIIβ full-length hub domain (residues 534-666) (domain or fragment)” the stoichiometry N [1] was 16, the stoichiometry N [2] was 14 and 16 and the stoichiometry N [3] was 12 and 14 and 16. The stoichiometry N [4] was 14.

CaMKIIα hub domain (domain or fragment) gave a stoichiometry N [5] of 16.

B1: CaMKIIβ hub dimer variant (F585A + L622M) (domain or fragment, human, UniProt Q13554 534-666, looked up)
chain: RKQEIIKTTEQLIEAVNNGDFEAYAKICDPGLTSFEPEALGNLVEGMDFHRAYFENLLAKNSKPIHTTILNPHVHVIGEDAACIAYIRMTQYIDGQGRPRTSQSEETRVWHRRDGKWQNVHFHCSGAPVAPLQ
With B1 the “stoichiometry N” value [6] was 2.
